US20050020492A1 (MERCK, published 2005)
Where two headings read alike, the source gives them in different places. Positions of bridges follow the written chain, without caps; N, C: chain ends. Non-standard residues stand in square brackets, D forms with d. Cha = N[C@@H](CC1CCCCC1)C(=O)O

Legend:
human MCH-1R [1] = biological target: T1, human MCH-1R (human, UniProt Q99705 1-353); test: cell-based or functional assay
human MCH-2R [2] = biological target: T2, human MCH-2R (human, UniProt Q969V1 1-340); test: SPA, displacement of [125I]-[Phe13,Tyr19]-hMCH, MCH-2R membranes
T2 construct: Function: 293AEQ17/MCH-2R cells; also called hMCH-2R
T2 sequence (Q969V1 whole entry): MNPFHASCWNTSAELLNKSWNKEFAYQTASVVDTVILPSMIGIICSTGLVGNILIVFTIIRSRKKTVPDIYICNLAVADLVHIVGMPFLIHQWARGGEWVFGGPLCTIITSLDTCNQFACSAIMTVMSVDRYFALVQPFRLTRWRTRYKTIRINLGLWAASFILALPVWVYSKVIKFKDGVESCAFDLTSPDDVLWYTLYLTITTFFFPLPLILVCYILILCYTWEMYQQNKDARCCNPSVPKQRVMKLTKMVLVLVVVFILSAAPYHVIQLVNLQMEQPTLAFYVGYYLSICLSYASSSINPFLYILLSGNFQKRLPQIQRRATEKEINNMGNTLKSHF
Method: (§1) After equilibrating at room temperature for 3 hours, the plates were read in a TopCount (Packard, Meriden, Conn.). IC₅₀ calculations were performed using Prism 3.0 (GraphPad. Software, San Diego, Calif.). The IC₅₀ values were measured in three different experiments.

human MCH-1R [3] = biological target: T1, human MCH-1R; test: SPA, displacement of [125I]-[Phe13,Tyr19]-hMCH, CHO/MCH-1R membranes
Method: as §1

human MCH-1R [4] = biological target: T1, human MCH-1R; test: cell-based or functional assay; remark: listed apart in the source
human MCH-2R [5] = biological target: T2, human MCH-2R; test: cell-based or functional assay
human MCH-1R [6] = biological target: T1, human MCH-1R; test: ratio of the two SPA IC50s
human MCH-2R [7] = biological target: T2, human MCH-2R; test: cell-based or functional assay; remark: listed apart in the source
human MCH-2R [8] = biological target: T2, human MCH-2R; test: SPA, displacement of [125I]-[Phe13,Tyr19]-hMCH, MCH-2R membranes; remark: listed apart in the source
Method: as §1

T1 sequence (Q99705 whole entry): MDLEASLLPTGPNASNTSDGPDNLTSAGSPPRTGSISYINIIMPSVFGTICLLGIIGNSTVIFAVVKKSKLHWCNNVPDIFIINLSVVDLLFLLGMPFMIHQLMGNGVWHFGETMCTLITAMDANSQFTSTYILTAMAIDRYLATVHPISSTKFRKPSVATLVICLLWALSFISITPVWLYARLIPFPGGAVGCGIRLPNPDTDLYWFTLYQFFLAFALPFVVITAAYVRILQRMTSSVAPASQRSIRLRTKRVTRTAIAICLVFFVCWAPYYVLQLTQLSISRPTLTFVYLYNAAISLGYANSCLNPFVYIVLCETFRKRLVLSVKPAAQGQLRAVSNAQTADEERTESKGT

Binder	Activation %, aequorin bioluminescence (human MCH-1R [1]) [%]	IC50 (human MCH-2R [2]) [nM]	IC50 (human MCH-1R [3]) [nM]	Activation %, aequorin bioluminescence (human MCH-1R [4]) [%]	EC50, aequorin bioluminescence (human MCH-1R [4]) [nM]	Selectivity 2/1 (MCH-2R/MCH-1R EC50 activity ratio) (human MCH-1R [4]) [ratio]	Activation %, aequorin bioluminescence (human MCH-2R [5]) [%]	EC50, aequorin bioluminescence (human MCH-2R [5]) [nM]	Selectivity 2/1 (MCH-2R/MCH-1R IC50 ratio) (human MCH-1R [6]) [ratio]	Activation %, aequorin bioluminescence (human MCH-2R [7]) [%]	EC50, aequorin bioluminescence (human MCH-1R [1]) [nM]	EC50, aequorin bioluminescence (human MCH-2R [7]) [nM]	IC50 (human MCH-2R [8]) [nM]
XCMLGRVYRPC (N-terminal acetyl; D-Arg at position 6; C-terminal amide; disulfide cycle) [SEQ. ID. NO. 5 (Ac-D-Arg^6 analog of Ac-hMCH(6-16)-NH2)]	97												
RCMLXRVYRPC (HELM PEPTIDE1{[ac].R.C.M.L.[Cit].R.V.Y.R.P.C.[am]}$PEPTIDE1,PEPTIDE1,3:R3-12:R3$$$V2.0; SMILES CSCC[C@@H]1NC(=O)[C@@H](NC(=O)[C@H](CCCNC(=N)N)NC(C)=O)CSSC[C@@H](C(N)=O)NC(=O)[C@@H]2CCCN2C(=O)[C@H](CCCNC(=N)N)NC(=O)[C@H](Cc2ccc(O)cc2)NC(=O)[C@H](C(C)C)NC(=O)[C@H](CCCNC(=N)N)NC(=O)[C@H](CCCNC(N)=O)NC(=O)[C@H](CC(C)C)NC1=O, also called Cit^10 peptide) [SEQ. ID. NO. 27 (Cit^10 analog of Ac-hMCH(6-16)-NH2)]		130	3.1	91	920	0.3	68	310	42				
XCMLGRVYRPC (position 6 is Gva, des-amino-arginine (5-guanidinovaleric acid), no acetyl; C-terminal amide; disulfide cycle) [SEQ. ID. NO. 3 (Gva^6 analog of Ac-hMCH(6-16)-NH2)]	49									102			
Ac-RCML[Cha]RVYRPC-NH2 (disulfide 2-11) [SEQ. ID. NO. 19 (Cha^10 analog of Ac-hMCH(6-16)-NH2)]		55	5	76	1200	0.25	74	300	11				
XCMLGRVYRPC (HELM PEPTIDE1{[ac].[dA].C.M.L.G.R.V.Y.R.P.C.[am]}$PEPTIDE1,PEPTIDE1,3:R3-12:R3$$$V2.0; SMILES CSCC[C@@H]1NC(=O)[C@@H](NC(=O)[C@@H](C)NC(C)=O)CSSC[C@@H](C(N)=O)NC(=O)[C@@H]2CCCN2C(=O)[C@H](CCCNC(=N)N)NC(=O)[C@H](Cc2ccc(O)cc2)NC(=O)[C@H](C(C)C)NC(=O)[C@H](CCCNC(=N)N)NC(=O)CNC(=O)[C@H](CC(C)C)NC1=O) [SEQ. ID. NO. 6 (Ac-D-Ala^6 analog of Ac-hMCH(6-16)-NH2)]	109		0.77							51	160	4900	2700
XCMLGRVYRPC (N-terminal acetyl; D-Asn at position 6; C-terminal amide; disulfide cycle) [SEQ. ID. NO. 10 (Ac-D-Asn^6 analog of Ac-hMCH(6-16)-NH2)]	113									42	260		
XCMLGRVYRPC (N-terminal acetyl; D-Ser at position 6; C-terminal amide; disulfide cycle) [SEQ. ID. NO. 11 (Ac-D-Ser^6 analog of Ac-hMCH(6-16)-NH2)]	114									39	160		
XCMLGRVYRPC (N-terminal acetyl; D-Pro at position 6; C-terminal amide; disulfide cycle) [SEQ. ID. NO. 8 (Ac-D-Pro^6 analog of Ac-hMCH(6-16)-NH2)]	120												
RCMLXRVYRPC (HELM PEPTIDE1{[ac].R.C.M.L.[O=C([C@H](Cc1ccc2ccccc2c1)N[*:1])[*:2]].R.V.Y.R.P.C.[am]}$PEPTIDE1,PEPTIDE1,3:R3-12:R3$$$V2.0; SMILES CSCC[C@@H]1NC(=O)[C@@H](NC(=O)[C@H](CCCNC(=N)N)NC(C)=O)CSSC[C@@H](C(N)=O)NC(=O)[C@@H]2CCCN2C(=O)[C@H](CCCNC(=N)N)NC(=O)[C@H](Cc2ccc(O)cc2)NC(=O)[C@H](C(C)C)NC(=O)[C@H](CCCNC(=N)N)NC(=O)[C@H](Cc2ccc3ccccc3c2)NC(=O)[C@H](CC(C)C)NC1=O) [SEQ. ID. NO. 21 (Nal(2′)^10 analog of Ac-hMCH(6-16)-NH2)]		18	1.3	7	> 10000		105	81	14				
Ac-RCMLFRVYRPC-NH2 (disulfide 2-11 (inferred)) [SEQ. ID. NO. 20 (Phe^10 analog of Ac-hMCH(6-16)-NH2)]		1.9	0.1	75	66	0.75	88	50	19				
Ac-RCMLKRVYRPC-NH2 (disulfide 2-11 (inferred)) [SEQ. ID. NO. 24 (Lys^10 analog of Ac-hMCH(6-16)-NH2)]		1460	17	43	5700	1	40	6050	86				
Ac-RCMLSRVYRPC-NH2 (disulfide 2-11 (inferred), also called Ser^10 peptide) [SEQ. ID. NO. 26 (Ser^10 analog of Ac-hMCH(6-16)-NH2)]		55	0.54	120	130	0.7	87	89	100				
Ac-RCMLERVYRPC-NH2 (disulfide 2-11 (inferred), also called Glu^10 peptide) [SEQ. ID. NO. 28 (Glu^10 analog of Ac-hMCH(6-16)-NH2)]			290	21	> 10000		22	> 10000					
Ac-RCMLPRVYRPC-NH2 (disulfide 2-11 (inferred)) [SEQ. ID. NO. 22 (Pro^10 analog of Ac-hMCH(6-16)-NH2)]		3500	760	10	> 10000		13	> 10000	5				
Ac-RCMLNRVYRPC-NH2 (disulfide 2-11 (inferred), also called Asn^10 peptide) [SEQ. ID. NO. 25 (Asn^10 analog of Ac-hMCH(6-16)-NH2)]		490	0.28	126	51	4.7	86	240	1800				
Ac-RCMLRRVYRPC-NH2 (disulfide 2-11 (inferred)) [SEQ. ID. NO. 23 (Arg^10 analog of Ac-hMCH(6-16)-NH2)]		420	640	7	> 10000		38	1660	0.7				
XCMLGRVYRPC (N-terminal acetyl; D-Nle (D-norleucine) at position 6; C-terminal amide; disulfide cycle) [SEQ. ID. NO. 7 (Ac-D-Nle^6 analog of Ac-hMCH(6-16)-NH2)]	115									69			1460
XCMLGRVYRPC (not fully specified; N-terminal acetyl; D-Glu at position 6; C-terminal amide; disulfide cycle) [SEQ. ID. NO. 12 (Ac-D-Glu^6 analog of Ac-hMCH(6-16)-NH2)]	100									20			
XCMLGRVYRPC (D-Arg at position 6, no acetyl; C-terminal amide; disulfide cycle) [SEQ. ID. NO. 4 (D-Arg^6 analog lacking an Ac group)]	130		0.35								107	55	47
RCMLXRVYRPC (N-terminal acetyl; Nle (norleucine) at position 10; C-terminal amide; disulfide cycle) [SEQ. ID. NO. 18 (Nle^10 analog of Ac-hMCH(6-16)-NH2)]		1.9	0.1	115		0.4	97		21				
